Numbering of substitutions follows the chain as printed. Values belong to the binder of their own block, whether it stands above or below them.
Tests used:
Test in all cases: BLI (Octet384RED)
[1] = target: T1, Sortilin SORTECDBAP_hB12390 (human/tetraodon chimera)
T1 construct: Shuffle construct: chimeric human/tetraodon Sortilin ECD with BAP tag
T1 chain: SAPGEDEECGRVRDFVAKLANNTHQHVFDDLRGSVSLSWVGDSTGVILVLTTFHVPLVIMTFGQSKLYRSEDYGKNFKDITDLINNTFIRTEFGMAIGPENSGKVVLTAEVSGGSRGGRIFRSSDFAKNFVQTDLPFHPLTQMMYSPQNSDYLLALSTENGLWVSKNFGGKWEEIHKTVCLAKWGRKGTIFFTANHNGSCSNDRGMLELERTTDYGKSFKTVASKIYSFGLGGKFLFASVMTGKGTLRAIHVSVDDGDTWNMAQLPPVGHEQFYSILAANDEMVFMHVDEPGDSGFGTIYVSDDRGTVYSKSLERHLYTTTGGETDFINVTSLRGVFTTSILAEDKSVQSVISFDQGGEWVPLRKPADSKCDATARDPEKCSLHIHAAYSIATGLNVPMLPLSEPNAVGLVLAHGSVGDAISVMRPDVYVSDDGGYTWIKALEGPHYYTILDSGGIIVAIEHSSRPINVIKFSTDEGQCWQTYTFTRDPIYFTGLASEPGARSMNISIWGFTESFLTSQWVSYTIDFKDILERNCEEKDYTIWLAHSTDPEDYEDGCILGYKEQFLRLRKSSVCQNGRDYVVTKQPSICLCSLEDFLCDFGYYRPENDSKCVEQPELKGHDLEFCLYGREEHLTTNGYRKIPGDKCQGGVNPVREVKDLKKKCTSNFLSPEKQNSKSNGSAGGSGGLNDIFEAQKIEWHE

[2] = target: T2, Sortilin SORTECDBAP_tetra (tetraodon)
T2 construct: Fully tetraodon Sortilin ECD with BAP tag; also called tetraodon; tetraodon Sortilin
T2 chain: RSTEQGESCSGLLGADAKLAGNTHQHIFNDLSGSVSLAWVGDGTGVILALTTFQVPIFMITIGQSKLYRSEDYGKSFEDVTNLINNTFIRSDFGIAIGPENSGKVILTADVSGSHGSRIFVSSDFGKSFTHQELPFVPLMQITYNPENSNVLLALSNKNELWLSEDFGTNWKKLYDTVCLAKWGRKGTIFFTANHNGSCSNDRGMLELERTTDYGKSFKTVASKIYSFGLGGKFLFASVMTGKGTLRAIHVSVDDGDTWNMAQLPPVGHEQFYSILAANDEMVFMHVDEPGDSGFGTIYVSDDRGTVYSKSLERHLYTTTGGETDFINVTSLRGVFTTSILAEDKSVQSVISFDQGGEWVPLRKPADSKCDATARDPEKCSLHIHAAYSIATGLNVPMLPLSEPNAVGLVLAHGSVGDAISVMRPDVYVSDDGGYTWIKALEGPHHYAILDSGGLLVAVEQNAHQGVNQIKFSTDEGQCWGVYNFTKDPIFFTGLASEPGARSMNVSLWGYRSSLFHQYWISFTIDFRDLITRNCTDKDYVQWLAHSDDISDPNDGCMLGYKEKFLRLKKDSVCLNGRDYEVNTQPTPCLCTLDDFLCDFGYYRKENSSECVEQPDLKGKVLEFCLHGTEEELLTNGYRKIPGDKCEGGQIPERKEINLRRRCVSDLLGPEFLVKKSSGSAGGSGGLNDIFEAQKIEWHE

Sortilin hSORTECDBAP = target: T3, Sortilin hSORTECDBAP (human, UniProt Q99523 78-755)
T3 sequence: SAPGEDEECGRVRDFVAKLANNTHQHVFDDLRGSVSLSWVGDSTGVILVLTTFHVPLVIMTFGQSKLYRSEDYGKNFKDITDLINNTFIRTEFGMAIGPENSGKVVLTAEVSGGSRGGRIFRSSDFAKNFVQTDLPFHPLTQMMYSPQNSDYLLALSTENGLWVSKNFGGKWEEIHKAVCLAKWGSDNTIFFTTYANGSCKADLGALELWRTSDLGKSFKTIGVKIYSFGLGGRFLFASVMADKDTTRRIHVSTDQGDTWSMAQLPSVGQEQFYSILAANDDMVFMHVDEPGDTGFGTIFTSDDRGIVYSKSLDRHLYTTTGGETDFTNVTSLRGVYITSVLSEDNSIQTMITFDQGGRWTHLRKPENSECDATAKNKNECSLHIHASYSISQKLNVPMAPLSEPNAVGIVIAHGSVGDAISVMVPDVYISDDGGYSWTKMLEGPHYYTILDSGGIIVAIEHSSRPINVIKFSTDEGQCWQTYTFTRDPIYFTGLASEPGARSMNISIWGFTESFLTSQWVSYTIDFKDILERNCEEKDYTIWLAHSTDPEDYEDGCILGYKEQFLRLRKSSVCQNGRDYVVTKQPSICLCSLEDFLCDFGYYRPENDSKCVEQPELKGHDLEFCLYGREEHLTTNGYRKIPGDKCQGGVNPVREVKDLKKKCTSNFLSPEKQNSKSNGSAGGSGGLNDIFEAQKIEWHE

[3] = target: T4, Sortilin SORTECDBAP_hB01-05 (human/tetraodon chimera)
T4 construct: Shuffle construct: chimeric human/tetraodon Sortilin ECD with BAP tag
T4 chain: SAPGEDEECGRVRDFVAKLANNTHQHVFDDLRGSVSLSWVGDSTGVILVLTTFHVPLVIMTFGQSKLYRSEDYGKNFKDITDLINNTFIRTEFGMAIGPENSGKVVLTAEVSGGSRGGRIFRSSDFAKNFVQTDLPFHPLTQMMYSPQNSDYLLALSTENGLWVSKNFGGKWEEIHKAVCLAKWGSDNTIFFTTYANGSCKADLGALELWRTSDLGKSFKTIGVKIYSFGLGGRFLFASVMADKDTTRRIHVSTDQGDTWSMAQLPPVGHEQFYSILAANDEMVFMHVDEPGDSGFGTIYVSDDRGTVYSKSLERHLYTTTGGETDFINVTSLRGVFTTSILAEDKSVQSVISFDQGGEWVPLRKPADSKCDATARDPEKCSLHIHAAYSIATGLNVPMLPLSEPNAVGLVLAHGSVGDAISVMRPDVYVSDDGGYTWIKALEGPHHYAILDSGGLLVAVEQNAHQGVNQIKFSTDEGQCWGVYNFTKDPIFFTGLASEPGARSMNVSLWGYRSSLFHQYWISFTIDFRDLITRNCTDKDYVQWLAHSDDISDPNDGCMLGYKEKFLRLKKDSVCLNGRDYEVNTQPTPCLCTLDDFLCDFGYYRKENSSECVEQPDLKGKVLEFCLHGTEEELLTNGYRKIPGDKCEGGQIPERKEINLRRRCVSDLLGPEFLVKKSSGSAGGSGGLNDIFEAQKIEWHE

B2: Antibody 6003-030 (antibody, human IgG1, V domains shown)
VH: EVQVLESGGGLVQPGGSLRLSCAASGFTFSSYAMSWVRQAPGKGLEWVSTISGRGGNTYYADSVKGRFTISRDNSKNTLYLQMDSLRAEDTAVYYCAIIPSLYWYFDLWGRGTLVTVSS
VL: EIVLTQSPATLSLSPGERATLSCRASQSVSSYLAWYQQKPGQAPRLLIYDASNRATGIPARFSGSGSGTDFTLTISSLEPEDFAVYYCQQRSNWPLTFGGGTKVEIK
notes: Human antibody (HuMab); also called antibody 30; mAb30
EC50 [1]: 0.82 ng/mL
binding result [2]: no binding
EC50 (Sortilin hSORTECDBAP): 0.89 ng/mL
binding result [3]: no binding

B3: Antibody 6003-028 (antibody, human IgG1, V domains shown)
VH: B2 VH with V4L, N57S, D84N, I98N, I99L, P100Y, L102N
VL: B2 VL with Y32F
EC50 [1]: 1.86 ng/mL
binding result [2]: no binding
EC50 (Sortilin hSORTECDBAP): 1.75 ng/mL
binding result [3]: no binding

B4: Antibody 6003-056 (antibody, human IgG1, V domains shown)
VH: B2 VH with A23V, S35H, T50A, N57S, D84N
VL: B2 VL with Y32F
EC50 [1]: 1.42 ng/mL
binding result [2]: no binding
EC50 (Sortilin hSORTECDBAP): 1.26 ng/mL
binding result [3]: no binding

Other lines, results leading:

EC50 [1]: 1.93 ng/mL
binding result [2]: no binding
EC50 (Sortilin hSORTECDBAP): 1.82 ng/mL
binding result [3]: no binding
B1: Antibody 6003-381 (antibody, human IgG1, V domains shown)
VH: QVQLVESGGGVVQPGRSLRLSCAASGFTFSNYVMHWVRQAPGKGLEWVAAISYNGNNKYYADSVKGRFTISRDNSKNTLYLQMNSLRAEDTAVSYCAKGLNDAFDIWGQGTMVTVSS
VL: not shown

EC50 [1]: 0.86 ng/mL
binding result [2]: no binding
EC50 (Sortilin hSORTECDBAP): 0.77 ng/mL
binding result [3]: no binding
B5: Antibody 6003-083 (antibody, human IgG1, V domains shown)
VH: B2 VH with V4L, N57S, D84N, I99V, P100A, S101T, L102M
VL: B2 VL with L96I, G100Q, K103R, V104L

EC50 [1]: 0.86 ng/mL
binding result [2]: no binding
EC50 (Sortilin hSORTECDBAP): 1.02 ng/mL
binding result [3]: no binding
B6: Antibody 6003-1286 (antibody, human IgG1, V domains shown)
VH: B2 VH with V4L, D84N, T91A, I98N, P100Y, L102H
VL: B2 VL with S30N

EC50 [1]: 2.21 ng/mL
binding result [2]: no binding
EC50 (Sortilin hSORTECDBAP): 1.93 ng/mL
binding result [3]: no binding
B7: IgG1-6003-408 (antibody, V domains shown)
VH: EVQLVESGGGLVKPGGSLRLSCAASGFTFSSYSMNWVRQAPGKGLEWVSSISSSSSYIYYADSVKGRFTISRDNAKNSLYLQMNSLRAEDTAVYYCARRRIAAAGTGYGAFDIWGQGTMVTVSS
VL: ARQLTQSPSSLSASVGDRVTITCRASQGITSALAWYQQKPGKVPKLLIYDASSLESGVPSRFSGSGSGTDFTLTISSLQPEDFATYYCQQFNGYPMFSFGQGTKLEII
notes: also called Antibody 6003-408

EC50 [1]: 3.63 ng/mL
binding result [2]: no binding
EC50 (Sortilin hSORTECDBAP): 3.03 ng/mL
binding result [3]: no binding
B8: Antibody 6003-1277 (antibody, V domains shown)
VH: QVQLVQSGAEVKKPGASVKVSCKTSGYTFTHYGISWVRQAPGQGLEWMGWINTYNGNTKYAQKLQGRVTMTTDTSTSTAYMELRSLRSDDTAVYYCASLGRNFDYWGQGTLVTVSS
VL: not shown

Reference: patent publication US20210292414A1 (H LUNDBECK A S, published 2021)
